The results in this text go back to the supplement of paper PMC10567573.

First the molecules themselves.
B1: CD207 (parent)
chain: MTVEKEAPDAHFTVDKQNISLWPR
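Also: lentivirally expressed fusions sorted by FACS into six bins by GFP to DsRed ratio, PSI derived from sequencing read proportions per bin multiplied by bin number.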

The series covers variants of B1. Briefly: protein stability index of a GFP-peptide fusion (GPS, HEK-293T) (PSI 1-6); higher = more stable. As to conditions: c terminus: a fixed tail appended.
MTREKEAPDAHFTVDKQNISLWPR [V3R]: the protein stability index stood at 3.9. With MTFEKEAPDAHFTVDKQNISLWPR [V3F] the figure was 2.85; with MTNEKEAPDAHFTVDKQNISLWPR [V3N], 3.93. The result for MTIEKEAPDAHFTVDKQNISLWPR [V3I] reads 3.33; that for MTHEKEAPDAHFTVDKQNISLWPR [V3H], 3.54; that for MTLEKEAPDAHFTVDKQNISLWPR [V3L], 3.44.

For MTWEKEAPDAHFTVDKQNISLWPR [V3W], the protein stability index stood at 2.86. The result for MTGEKEAPDAHFTVDKQNISLWPR [V3G] reads 3.19; that for MTCEKEAPDAHFTVDKQNISLWPR [V3C], 2.68; that for MTSEKEAPDAHFTVDKQNISLWPR [V3S], 3.55.

In the case of MTEEKEAPDAHFTVDKQNISLWPR [V3E], the protein stability index came to 3.72. The result for MTDEKEAPDAHFTVDKQNISLWPR [V3D] reads 4.12; that for MTQEKEAPDAHFTVDKQNISLWPR [V3Q], 3.42; that for MTKEKEAPDAHFTVDKQNISLWPR [V3K], 3.79. In the case of MTTEKEAPDAHFTVDKQNISLWPR [V3T], the protein stability index turned out to be 3.57. The result for MTAEKEAPDAHFTVDKQNISLWPR [V3A] reads 3.47; that for MTPEKEAPDAHFTVDKQNISLWPR [V3P], 4.07; that for MTMEKEAPDAHFTVDKQNISLWPR [V3M], 3.09. Take MTYEKEAPDAHFTVDKQNISLWPR [V3Y]: the protein stability index came out at 2.75. MTVEKEAADAHFTVDKQNISLWPR [P8A]: the protein stability index was determined as 3.52. As to MKVEKEAPDAHFTVDKQNISLWPR [T2K], the protein stability index is 3.65.

For MSVEKEAPDAHFTVDKQNISLWPR [T2S], the protein stability index was 3.57. With MHVEKEAPDAHFTVDKQNISLWPR [T2H] the figure was 3.08.

Take MCVEKEAPDAHFTVDKQNISLWPR [T2C]: the protein stability index was 2.54. With MVVEKEAPDAHFTVDKQNISLWPR [T2V] the figure was 3.21; with MGVEKEAPDAHFTVDKQNISLWPR [T2G], 3.68; with MMVEKEAPDAHFTVDKQNISLWPR [T2M], 3.86. With MFVEKEAPDAHFTVDKQNISLWPR [T2F] the figure was 2.71. The result for MNVEKEAPDAHFTVDKQNISLWPR [T2N] reads 3.36. Regarding MAVEKEAPDAHFTVDKQNISLWPR [T2A], the protein stability index turned out to be 3.35. With MRVEKEAPDAHFTVDKQNISLWPR [T2R] the figure was 2.83; with MIVEKEAPDAHFTVDKQNISLWPR [T2I], 2.94. The result for MDVEKEAPDAHFTVDKQNISLWPR [T2D] reads 3.62; that for MWVEKEAPDAHFTVDKQNISLWPR [T2W], 2.59.

As to MQVEKEAPDAHFTVDKQNISLWPR [T2Q], the protein stability index worked out at 3.54.

With MYVEKEAPDAHFTVDKQNISLWPR [T2Y], the protein stability index was found to be 2.18.

With MLVEKEAPDAHFTVDKQNISLWPR [T2L], the protein stability index was 3.17. With MTVEKSAPDAHFTVDKQNISLWPR [E6S] the figure was 3.01. The result for MTVEKHAPDAHFTVDKQNISLWPR [E6H] reads 2.83.

As to MTVEKKAPDAHFTVDKQNISLWPR [E6K], the protein stability index turned out to be 3.47.

For the variant MTVEKNAPDAHFTVDKQNISLWPR [E6N], the protein stability index is 3.23. With MTVEKCAPDAHFTVDKQNISLWPR [E6C] the figure was 2.32; with MTVEKLAPDAHFTVDKQNISLWPR [E6L], 2.72.

On to MTVEKPAPDAHFTVDKQNISLWPR [E6P], for which the protein stability index amounted to 3.14.

For the variant MTVEKRAPDAHFTVDKQNISLWPR [E6R], the protein stability index came to 2.74. With MTVEKGAPDAHFTVDKQNISLWPR [E6G] the figure was 3.27. For MTVEKYAPDAHFTVDKQNISLWPR [E6Y], the protein stability index stood at 2.38. Turning to MTVEKIAPDAHFTVDKQNISLWPR [E6I], the protein stability index was 2.37. Consider MTVEKDAPDAHFTVDKQNISLWPR [E6D], for which the protein stability index was found to be 3.31. Take MTVEKQAPDAHFTVDKQNISLWPR [E6Q]: the protein stability index was determined as 3.25. With MTVEKAAPDAHFTVDKQNISLWPR [E6A] the figure was 3.21. In the case of MTVEKMAPDAHFTVDKQNISLWPR [E6M], the protein stability index was 2.52. The result for MTVEKVAPDAHFTVDKQNISLWPR [E6V] reads 2.05. The result for MTVEKFAPDAHFTVDKQNISLWPR [E6F] reads 2.27. For the variant MTVEKWAPDAHFTVDKQNISLWPR [E6W], the protein stability index was 2.29. With MTVEKTAPDAHFTVDKQNISLWPR [E6T] the figure was 3.08. The result for MTVEKEWPDAHFTVDKQNISLWPR [A7W] reads 2.68; that for MTVEKETPDAHFTVDKQNISLWPR [A7T], 3.31; that for MTVEKEYPDAHFTVDKQNISLWPR [A7Y], 2.93.

Regarding MTVEKEEPDAHFTVDKQNISLWPR [A7E], the protein stability index amounted to 4.23.

Regarding MTVEKERPDAHFTVDKQNISLWPR [A7R], the protein stability index amounted to 2.54. As for MTVEKELPDAHFTVDKQNISLWPR [A7L], the protein stability index came out at 2.96.

For MTVEKEKPDAHFTVDKQNISLWPR [A7K], the protein stability index was found to be 3.11. The result for MTVEKEHPDAHFTVDKQNISLWPR [A7H] reads 3.32; that for MTVEKEVPDAHFTVDKQNISLWPR [A7V], 3.51. Turning to MTVEKENPDAHFTVDKQNISLWPR [A7N], the protein stability index stood at 4.01. In the case of MTVEKEMPDAHFTVDKQNISLWPR [A7M], the protein stability index amounted to 2.61. With MTVEKEIPDAHFTVDKQNISLWPR [A7I] the figure was 2.67. The result for MTVEKEDPDAHFTVDKQNISLWPR [A7D] reads 3.79. With MTVEKEFPDAHFTVDKQNISLWPR [A7F] the figure was 2.77; with MTVEKESPDAHFTVDKQNISLWPR [A7S], 3.71; with MTVEKECPDAHFTVDKQNISLWPR [A7C], 3.31.

For the variant MTVEKEQPDAHFTVDKQNISLWPR [A7Q], the protein stability index came to 3.97. The result for MTVEKEPPDAHFTVDKQNISLWPR [A7P] reads 3.54; that for MTVEMEAPDAHFTVDKQNISLWPR [K5M], 2.04.

Regarding MTVEEEAPDAHFTVDKQNISLWPR [K5E], the protein stability index stood at 4.03.

Consider MTVEAEAPDAHFTVDKQNISLWPR [K5A], for which the protein stability index is 2.96.

MTVEYEAPDAHFTVDKQNISLWPR [K5Y]: the protein stability index came out at 1.99. With MTVELEAPDAHFTVDKQNISLWPR [K5L] the figure was 1.86. Turning to MTVEVEAPDAHFTVDKQNISLWPR [K5V], the protein stability index was 1.53. As to MTVECEAPDAHFTVDKQNISLWPR [K5C], the protein stability index was determined as 2.58.

As for MTVEPEAPDAHFTVDKQNISLWPR [K5P], the protein stability index is 3.48. MTVEIEAPDAHFTVDKQNISLWPR [K5I]: the protein stability index was 1.95. With MTVEFEAPDAHFTVDKQNISLWPR [K5F] the figure was 2.02.

Regarding MTVEREAPDAHFTVDKQNISLWPR [K5R], the protein stability index came to 2.94. The result for MTVENEAPDAHFTVDKQNISLWPR [K5N] reads 3.13; that for MTVEGEAPDAHFTVDKQNISLWPR [K5G], 3.79; that for MTVESEAPDAHFTVDKQNISLWPR [K5S], 3.04. Turning to MTVEWEAPDAHFTVDKQNISLWPR [K5W], the protein stability index stood at 2.04.

In the case of MTVETEAPDAHFTVDKQNISLWPR [K5T], the protein stability index worked out at 2.89.

As to MTVEHEAPDAHFTVDKQNISLWPR [K5H], the protein stability index was 3.27. With MTVEDEAPDAHFTVDKQNISLWPR [K5D] the figure was 3.48; with MTVVKEAPDAHFTVDKQNISLWPR [E4V], 3.38; with MTVCKEAPDAHFTVDKQNISLWPR [E4C], 3.11.
